Measured values from US12698494.

T1: FRETS-VWF73 fluorogenic substrate, P04275
T1 chain: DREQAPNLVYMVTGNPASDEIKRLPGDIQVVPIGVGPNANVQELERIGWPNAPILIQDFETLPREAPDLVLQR


What was measured:
[1] = biological target: T1, FRETS-VWF73 fluorogenic substrate, …
[2] = biological target: Von Willebrand Factor (VWF) multimers, P04275

Protein | Activity level (% relative to wild type ADAMTS13) VWFFRETS73 (% relative to wild type ADAMTS13) [1] | FRETS-VWF73 activity relative to wild-type ADAMTS13 [1] | VWF multimer assay (urea-denatured recombinant VWF) [2]
ADAMTS13 variant NGLY3 + R568A/Y665A + L591A/R636A/L637A/L668A (protein) AAGGILHLELLVAVGPDVFQAHQEDTERYVLTNLNIGAELLRDPSLGAQFRVHLVKMVILTEPEGAPNITANLTSSLLSVCGWSQTINPEDDTDPGHADLVLYITRFDLELPDGNRQVRGVTQLGGACSPTWSCLITEDTGFDLGVTIAHEIGHSFGLEHDGAPGSGCGPSGHVMASDGAAPRAGLAWSPCSRRQLLSLLSAGRARCVWDPPRPQPGSAGHPPDAQPGLYYSANEQCRVAFGPKAVACTFAREHLDMCQALSCHTDPLDQSSCSRLLVPLLDGTECGVEKWCSKGRCRSLVELTPIAAVHGRWSSWGPRSPCSRSCGGGVVTRRRQCNNPRPAFGGRACVGADLQAEMCNTQACEKTQLEFMSQQCARTDGQPLRSSPGGASFYHWGAAVPHSQGDALCRHMCRAIGESFIMKRGDSFLDGTRCMPSGPREDGTLSLCVSGSCRTFGCDGRMDSQQVWDRCQVCGGDNSTCSPRKGSFTAGRAAEYVTFLTVTPNLTSVYIANHRPAFTHLAVRIGGRYVVAGNMSISPNTTYPSLLEDGRVEYRVALTEDAAPRLEEIRIWGPLQEDADIQVYRRYGEEAGNATRPDITFTYFQPKPRQAWVWAAVRGPCSVSCGAGLRWVNYSCLDQARKELVETVQCQGSQQPPAWPEACVLEPCPPYWAVGDFGPCSASCGGGLRERPVRCVEAQGSLLKTLPPARCRAGAQQPAVALETCNPQPCPARWEVSEPSSCTSAGGAGLALENETCVPGADGLEAPVTEGPGSVDEKLPAPEPCVGMSCPPGWGHLDATSAGEKAPSPWGSIRTGAQAAHVWTPAAGSCSVSCGRGLMELRFLCMDSALRVPVQEELCGLASKPGSRREVCQAVPCPARWQYKLAACSVSCGRGVVRRILYCARAHGEDDGEEILLDTQCQGLPRPEPQEACSLEPCPPRWKVMSLGPCSASCGLGTARRSVACVQLDQGQDVEVDEAACAALVRPEASVPCLIADCTYRWHVGTWMECSVSCGDGIQRRRDTCLGPQAQAPVPADFCQHLPKPVTVRGCWAGPCVGQGTPSLVPHEEAAAPGRTTATPAGASLEWSQARGLLFSPAPQPRRLLPGPQENSVQSSACGRQHLEPTGTIDMRGPGQADCAVAIGRPLGEVVTLRVLESSLNCSAGDMLLLWGRLTWRKMCRKLLDMTFSSKTNTLVVRQRCGRPGGGVLLRYGSQLAPETFYRECDMQLFGPWGEIVSPSLSPATSNAGGCRLFINVAPHARIAIHALATNMGAGTEGANASYILIRDTHSLRTTAFHGQQVLYWESESSQAEMEFSEGFLKAQASLRGQYWTLQSWVPEMQDPQSWKGKEGT | 40 | – | –
Full-length ADAMTS13 variant NGLY6 (636RLPRL640 to 636RNASL640) (protein) AAGGILHLELLVAVGPDVFQAHQEDTERYVLTNLNIGAELLRDPSLGAQFRVHLVKMVILTEPEGAPNITANLTSSLLSVCGWSQTINPEDDTDPGHADLVLYITRFDLELPDGNRQVRGVTQLGGACSPTWSCLITEDTGFDLGVTIAHEIGHSFGLEHDGAPGSGCGPSGHVMASDGAAPRAGLAWSPCSRRQLLSLLSAGRARCVWDPPRPQPGSAGHPPDAQPGLYYSANEQCRVAFGPKAVACTFAREHLDMCQALSCHTDPLDQSSCSRLLVPLLDGTECGVEKWCSKGRCRSLVELTPIAAVHGRWSSWGPRSPCSRSCGGGVVTRRRQCNNPRPAFGGRACVGADLQAEMCNTQACEKTQLEFMSQQCARTDGQPLRSSPGGASFYHWGAAVPHSQGDALCRHMCRAIGESFIMKRGDSFLDGTRCMPSGPREDGTLSLCVSGSCRTFGCDGRMDSQQVWDRCQVCGGDNSTCSPRKGSFTAGRAREYVTFLTVTPNLTSVYIANHRPLFTHLAVRIGGRYVVAGKMSISPNTTYPSLLEDGRVEYRVALTEDRNASLEEIRIWGPLQEDADIQVYRRYGEEYGNLTRPDITFTYFQPKPRQAWVWAAVRGPCSVSCGAGLRWVNYSCLDQARKELVETVQCQGSQQPPAWPEACVLEPCPPYWAVGDFGPCSASCGGGLRERPVRCVEAQGSLLKTLPPARCRAGAQQPAVALETCNPQPCPARWEVSEPSSCTSAGGAGLALENETCVPGADGLEAPVTEGPGSVDEKLPAPEPCVGMSCPPGWGHLDATSAGEKAPSPWGSIRTGAQAAHVWTPAAGSCSVSCGRGLMELRFLCMDSALRVPVQEELCGLASKPGSRREVCQAVPCPARWQYKLAACSVSCGRGVVRRILYCARAHGEDDGEEILLDTQCQGLPRPEPQEACSLEPCPPRWKVMSLGPCSASCGLGTARRSVACVQLDQGQDVEVDEAACAALVRPEASVPCLIADCTYRWHVGTWMECSVSCGDGIQRRRDTCLGPQAQAPVPADFCQHLPKPVTVRGCWAGPCVGQGTPSLVPHEEAAAPGRTTATPAGASLEWSQARGLLFSPAPQPRRLLPGPQENSVQSSACGRQHLEPTGTIDMRGPGQADCAVAIGRPLGEVVTLRVLESSLNCSAGDMLLLWGRLTWRKMCRKLLDMTFSSKTNTLVVRQRCGRPGGGVLLRYGSQLAPETFYRECDMQLFGPWGEIVSPSLSPATSNAGGCRLFINVAPHARIAIHALATNMGAGTEGANASYILIRDTHSLRTTAFHGQQVLYWESESSQAEMEFSEGFLKAQASLRGQYWTLQSWVPEMQDPQSWKGKEGTHHHHHH | – | NGLY6 showed a reduced activity when compared to wild-type ADAMTS13 | –
Full-length ADAMTS13 variant NGLY1 (567AREYV571 to 567ANETV571) (protein) AAGGILHLELLVAVGPDVFQAHQEDTERYVLTNLNIGAELLRDPSLGAQFRVHLVKMVILTEPEGAPNITANLTSSLLSVCGWSQTINPEDDTDPGHADLVLYITRFDLELPDGNRQVRGVTQLGGACSPTWSCLITEDTGFDLGVTIAHEIGHSFGLEHDGAPGSGCGPSGHVMASDGAAPRAGLAWSPCSRRQLLSLLSAGRARCVWDPPRPQPGSAGHPPDAQPGLYYSANEQCRVAFGPKAVACTFAREHLDMCQALSCHTDPLDQSSCSRLLVPLLDGTECGVEKWCSKGRCRSLVELTPIAAVHGRWSSWGPRSPCSRSCGGGVVTRRRQCNNPRPAFGGRACVGADLQAEMCNTQACEKTQLEFMSQQCARTDGQPLRSSPGGASFYHWGAAVPHSQGDALCRHMCRAIGESFIMKRGDSFLDGTRCMPSGPREDGTLSLCVSGSCRTFGCDGRMDSQQVWDRCQVCGGDNSTCSPRKGSFTAGRANETVTFLTVTPNLTSVYIANHRPLFTHLAVRIGGRYVVAGKMSISPNTTYPSLLEDGRVEYRVALTEDRLPRLEEIRIWGPLQEDADIQVYRRYGEEYGNLTRPDITFTYFQPKPRQAWVWAAVRGPCSVSCGAGLRWVNYSCLDQARKELVETVQCQGSQQPPAWPEACVLEPCPPYWAVGDFGPCSASCGGGLRERPVRCVEAQGSLLKTLPPARCRAGAQQPAVALETCNPQPCPARWEVSEPSSCTSAGGAGLALENETCVPGADGLEAPVTEGPGSVDEKLPAPEPCVGMSCPPGWGHLDATSAGEKAPSPWGSIRTGAQAAHVWTPAAGSCSVSCGRGLMELRFLCMDSALRVPVQEELCGLASKPGSRREVCQAVPCPARWQYKLAACSVSCGRGVVRRILYCARAHGEDDGEEILLDTQCQGLPRPEPQEACSLEPCPPRWKVMSLGPCSASCGLGTARRSVACVQLDQGQDVEVDEAACAALVRPEASVPCLIADCTYRWHVGTWMECSVSCGDGIQRRRDTCLGPQAQAPVPADFCQHLPKPVTVRGCWAGPCVGQGTPSLVPHEEAAAPGRTTATPAGASLEWSQARGLLFSPAPQPRRLLPGPQENSVQSSACGRQHLEPTGTIDMRGPGQADCAVAIGRPLGEVVTLRVLESSLNCSAGDMLLLWGRLTWRKMCRKLLDMTFSSKTNTLVVRQRCGRPGGGVLLRYGSQLAPETFYRECDMQLFGPWGEIVSPSLSPATSNAGGCRLFINVAPHARIAIHALATNMGAGTEGANASYILIRDTHSLRTTAFHGQQVLYWESESSQAEMEFSEGFLKAQASLRGQYWTLQSWVPEMQDPQSWKGKEGTHHHHHH | – | The ability of NGLY1, 2, 3 and 4 was similar or higher when compared to wild-type ADAMTS13 | –
Full-length ADAMTS13 variant NGLY5 (635DRLPR639 to 635DNLSR639) (protein) AAGGILHLELLVAVGPDVFQAHQEDTERYVLTNLNIGAELLRDPSLGAQFRVHLVKMVILTEPEGAPNITANLTSSLLSVCGWSQTINPEDDTDPGHADLVLYITRFDLELPDGNRQVRGVTQLGGACSPTWSCLITEDTGFDLGVTIAHEIGHSFGLEHDGAPGSGCGPSGHVMASDGAAPRAGLAWSPCSRRQLLSLLSAGRARCVWDPPRPQPGSAGHPPDAQPGLYYSANEQCRVAFGPKAVACTFAREHLDMCQALSCHTDPLDQSSCSRLLVPLLDGTECGVEKWCSKGRCRSLVELTPIAAVHGRWSSWGPRSPCSRSCGGGVVTRRRQCNNPRPAFGGRACVGADLQAEMCNTQACEKTQLEFMSQQCARTDGQPLRSSPGGASFYHWGAAVPHSQGDALCRHMCRAIGESFIMKRGDSFLDGTRCMPSGPREDGTLSLCVSGSCRTFGCDGRMDSQQVWDRCQVCGGDNSTCSPRKGSFTAGRAREYVTFLTVTPNLTSVYIANHRPLFTHLAVRIGGRYVVAGKMSISPNTTYPSLLEDGRVEYRVALTEDNLSRLEEIRIWGPLQEDADIQVYRRYGEEYGNLTRPDITFTYFQPKPRQAWVWAAVRGPCSVSCGAGLRWVNYSCLDQARKELVETVQCQGSQQPPAWPEACVLEPCPPYWAVGDFGPCSASCGGGLRERPVRCVEAQGSLLKTLPPARCRAGAQQPAVALETCNPQPCPARWEVSEPSSCTSAGGAGLALENETCVPGADGLEAPVTEGPGSVDEKLPAPEPCVGMSCPPGWGHLDATSAGEKAPSPWGSIRTGAQAAHVWTPAAGSCSVSCGRGLMELRFLCMDSALRVPVQEELCGLASKPGSRREVCQAVPCPARWQYKLAACSVSCGRGVVRRILYCARAHGEDDGEEILLDTQCQGLPRPEPQEACSLEPCPPRWKVMSLGPCSASCGLGTARRSVACVQLDQGQDVEVDEAACAALVRPEASVPCLIADCTYRWHVGTWMECSVSCGDGIQRRRDTCLGPQAQAPVPADFCQHLPKPVTVRGCWAGPCVGQGTPSLVPHEEAAAPGRTTATPAGASLEWSQARGLLFSPAPQPRRLLPGPQENSVQSSACGRQHLEPTGTIDMRGPGQADCAVAIGRPLGEVVTLRVLESSLNCSAGDMLLLWGRLTWRKMCRKLLDMTFSSKTNTLVVRQRCGRPGGGVLLRYGSQLAPETFYRECDMQLFGPWGEIVSPSLSPATSNAGGCRLFINVAPHARIAIHALATNMGAGTEGANASYILIRDTHSLRTTAFHGQQVLYWESESSQAEMEFSEGFLKAQASLRGQYWTLQSWVPEMQDPQSWKGKEGTHHHHHH | – | The activity of NGLY5 was slightly reduced when compared to wild type ADAMTS13 | a reduced VWF processing activity was observed for NGLY2 and NGLY5
